The record followed here is US10064939B2, “Combination therapy using c-Met inhibitor and IGF-1R inhibitor for c-Met inhibitor resistant cancers” (Samsung Electronics Co., Ltd., priority 2014, dated 2018).

In assay [1] the test system is MKN45 re#1 gastric cancer cells. The assay is described as follows: Cell proliferation, CellTiter Glo assay, anti-c-Met antibody resistance induced cell line MKN45 re#1. It is filed as cell-based. Particulars: 72 hours; for cell proliferation inhibition effect: single treatment: L3-1Y/IgG2 (2 μg/ml) only or linsitinib (10 uM) only, FIG. 7. The procedure:
(§1) In particular, in order to obtain anti-c-Met antibody resistant MKN45 gastric cancer cells, MKN45 gastric cancer cells were administered with L3-1Y/IgG2 for at least 3 months by increasing the administration concentration. The amount of L3-1Y/IgG2 administered was increased from 1 μg/ml to 10 μg/ml, until resistance to L3-1Y/IgG2 is induced. The obtained L3-1Y/IgG2 resistant clones were named as MKN45re#1 and MKN45re#24, respectively.
(§2) In order to confirm the acquisition of resistance to L3-1Y/IgG2, the prepared L3-1Y/IgG2 resistant clones (MKN45 re#1 and MKN45 re#24) and MKN45 with no resistance were administered with various concentrations of L3-1Y/IgG2 (see FIG. 9). 72 hours after the antibody administration, the number of living cells was measured through CellTiter Glo assay (Promega, G7573).
(§3) The prepared L3-1Y/IgG2 resistance induced cell lines MKN45re#1 and MKN45re#24 were co-administered with L3-1Y/IgG2 and an IGF-1R inhibitor, to examine changes in cell proliferation of the L3-1Y/IgG2 resistance induced cell lines. Each of the L3-1Y/IgG2 resistant MKN45re#1 and MKN45re#24 cell lines was seeded on a 96-well plate at the amount of 10000 cells/well (medium: RPMI (GIBCO); culture conditions: 5% CO2 and 37° C.), and on the next day, treated with L3-1Y/IgG2 (2 μg/ml) and linsitinib (10 uM) together. 72 hours after the co-treatment, the number of living cells was counted by CellTiter Glo assay (Promega, G7573). For comparison, the same experiments were conducted using a control group with no treatment of L3-1Y/IgG or linsitinib, a group treated with L3-1Y/IgG (2 μg/ml) only, and a group treated with linsitinib (10 uM) only.

In assay [2] the test system is MKN45 re#24 gastric cancer cells. The assay is described as follows: Cell proliferation, CellTiter Glo assay, anti-c-Met antibody resistance induced cell line MKN45 re#24. It is filed as cell-based. Particulars: 72 hours; for cell proliferation inhibition effect: single treatment: L3-1Y/IgG2 (2 μg/ml) only or linsitinib (10 uM) only, FIG. 8. Here is the method: as §1, §2, §3
A general note: Cellular ATP, detected with luciferase, serves as a proxy for viable cell number.

The next assay has as its system MKN45 cells. The assay is described as follows: Cell proliferation, non-resistant MKN45 cells. Type of assay: cell-based. The procedure:
as §2

The subject of a further assay is Hs746T cell line. The assay is described as follows: Anticancer effect of anti-c-Met antibody used alone, Hs746T. Type of assay: cell-based.
A further assay deals with SNU-5 cell line. The assay is described as follows: Anticancer effect of anti-c-Met antibody used alone, SNU-5. Type of assay: cell-based.
The test system of the next assay is SNU-668 cell line. The assay is described as follows: Anticancer effect of anti-c-Met antibody used alone, SNU-668. It is filed as cell-based.
A further assay concerns YCC-11 cell line. The assay is described as follows: Anticancer effect of anti-c-Met antibody used alone, YCC-11. Type of assay: cell-based.
The target of another assay is c-Met (Homo sapiens, UniProt P08581). The assay is described as follows: Specificity of expressed scFv to c-Met. It is filed as binding. Particulars: after expression. The text has this: For use in constructing an scFv of the huAbF46 antibody from the heavy and light chain variable regions of the huAbF46 antibody, a gene was designed to have the structure of “VH-linker-VL” for each of the heavy and the light chain variable region, with the linker including the amino acid sequence “[…]” (SEQ ID NO: 54). A polynucleotide sequence (SEQ ID NO: 55) encoding the designed scFv of huAbF46 was synthesized in Bioneer and an expression vector for the polynucleotide had the nucleotide sequence of SEQ ID NO: 56.

The mark [3] stands for this setting: various, increasing concentrations of L3-1Y/IgG2, FIG. 9.

Chain of c-Met (P08581 25-1390): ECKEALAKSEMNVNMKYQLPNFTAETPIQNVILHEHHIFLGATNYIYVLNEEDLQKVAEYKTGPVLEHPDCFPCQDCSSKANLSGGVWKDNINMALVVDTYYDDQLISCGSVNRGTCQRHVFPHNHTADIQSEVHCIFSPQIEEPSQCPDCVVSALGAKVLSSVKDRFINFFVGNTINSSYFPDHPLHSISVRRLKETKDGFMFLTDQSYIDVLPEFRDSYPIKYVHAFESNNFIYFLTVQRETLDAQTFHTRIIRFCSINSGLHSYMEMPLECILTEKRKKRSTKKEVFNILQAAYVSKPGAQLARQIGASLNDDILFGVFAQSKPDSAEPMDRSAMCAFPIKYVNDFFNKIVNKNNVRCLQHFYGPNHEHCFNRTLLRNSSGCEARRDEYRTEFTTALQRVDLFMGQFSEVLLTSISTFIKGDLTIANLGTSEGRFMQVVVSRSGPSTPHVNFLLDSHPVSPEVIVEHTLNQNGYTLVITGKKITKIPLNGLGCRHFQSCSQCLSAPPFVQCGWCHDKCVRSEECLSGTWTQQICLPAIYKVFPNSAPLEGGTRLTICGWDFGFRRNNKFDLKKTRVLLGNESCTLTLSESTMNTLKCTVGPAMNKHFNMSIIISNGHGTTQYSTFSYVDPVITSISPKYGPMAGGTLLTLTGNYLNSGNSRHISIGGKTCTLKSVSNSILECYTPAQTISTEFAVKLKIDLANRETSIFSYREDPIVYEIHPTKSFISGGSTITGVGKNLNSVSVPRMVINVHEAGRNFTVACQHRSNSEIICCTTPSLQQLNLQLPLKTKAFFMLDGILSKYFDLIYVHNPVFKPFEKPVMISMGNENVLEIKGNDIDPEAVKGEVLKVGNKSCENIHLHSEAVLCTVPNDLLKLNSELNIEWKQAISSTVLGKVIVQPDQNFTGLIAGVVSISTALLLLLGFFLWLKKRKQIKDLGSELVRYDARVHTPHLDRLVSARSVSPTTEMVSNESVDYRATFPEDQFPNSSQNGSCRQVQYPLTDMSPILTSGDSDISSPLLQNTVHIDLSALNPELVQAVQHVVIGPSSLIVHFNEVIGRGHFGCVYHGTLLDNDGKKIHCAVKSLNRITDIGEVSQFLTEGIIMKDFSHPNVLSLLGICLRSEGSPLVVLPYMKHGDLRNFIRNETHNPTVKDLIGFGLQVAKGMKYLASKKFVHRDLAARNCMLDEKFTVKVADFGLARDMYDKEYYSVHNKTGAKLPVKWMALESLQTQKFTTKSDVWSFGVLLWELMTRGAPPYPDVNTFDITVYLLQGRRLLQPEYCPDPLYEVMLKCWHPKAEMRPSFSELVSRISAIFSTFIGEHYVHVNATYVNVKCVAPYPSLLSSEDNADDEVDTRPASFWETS

Turning to `CC1(O)CC(c2nc(-c3ccc4ccc(-c5ccccc5)nc4c3)c3c(N)nccn23)C1` (stereo not drawn) [linsitinib, 3-[8-Amino-1-(2-phenyl-7-quinolyl)imidazo[1,5-a]pyrazin-3-yl]-1-methyl-cyclobutanol, reference compound], the “cell proliferation inhibition effect” value in assay [1] and in assay [2] was “no cell proliferation inhibition effect” each time.

B1: L3-1Y/IgG2: anti-c-Met antibody: huAbF46-H4-A1 variable regions, human IgG2 hinge and constant region, human kappa light chain with His36Tyr (antibody)
heavy: EVQLVESGGGLVQPGGSLRLSCAASGFTFTDYYMSWVRQAPGKGLEWLGFIRNKANGYTTEYSASVKGRFTISRDNSKNTLYLQMNSLRAEDTAVYYCARDNWFAYWGQGTLVTVSSASTKGPSVFPLAPCSRSTSESTAALGCLVKDYFPEPVTVSWNSGALTSGVHTFPAVLQSSGLYSLSSVVTVPSSNFGTQTYTCNVDHKPSNTKVDKTVERKCCVECPPCPAPPVAGPSVFLFPPKPKDTLMISRTPEVTCVVVDVSHEDPEVQFNWYVDGVEVHNAKTKPREEQFNSTFRVVSVLTVVHQDWLNGKEYKCKVSNKGLPAPIEKTISKTKGQPREPQVYTLPPSREEMTKNQVSLTCLVKGFYPSDIAVEWESNGQPENNYKTTPPMLDSDGSFFLYSKLTVDKSRWQQGNVFSCSVMHEALHNHYTQKSLSLSPGK
light: DIQMTQSPSSLSASVGDRVTITCKSSQSLLASGNQNNYLAWYQQKPGKAPKMLIIWASTRVSGVPSRFSGSGSGTDFTLTISSLQPEDFATYYCQQSYSRPYTFGQGTKVEIKRTVAAPSVFIFPPSDEQLKSGTASVVCLLNNFYPREAKVQWKVDNALQSGNSQESVTEQDSKDSTYSLSSTLTLSKADYEKHKVYACEVTHQGLSSPVTKSFNRGEC
For the molecule B1, the “cell proliferation inhibition effect” value in assay [1] and in assay [2] was “no cell proliferation inhibition effect” each time. Also, the “proliferation (number of living cells)” value in assay [1] (setting [3]) and in assay [2] (setting [3]) was “not inhibited” throughout. For the same molecule, the “effect (cancer cell proliferation inhibition effect) when administered alone” value with MKN45 cells is recorded as “exhibits its effect”. Besides, the “anticancer effect when used alone” value with Hs746T cell line is reported as “exhibits anticancer effect”; in the assay with SNU-5 cell line, “exhibits anticancer effect”; with SNU-668 cell line it was “does not exhibit anticancer effect”; in the assay with YCC-11 cell line it was “does not exhibit anticancer effect”.

B2: scFv of huAbF46: scFv of structure VH-linker-VL from heavy and light chain variable regions of huAbF46 (protein)
scFv: EVQLVESGGGLVQPGGSLRLSCAASGFTFTDYYMSWVRQAPGKGLEWLGFIRNKANGYTTEYSASVKGRFTISRDNSKNTLYLQMNSLRAEDTAVYYCARDNWFAYWGQGTLVTVSSGLGGLGGGGSGGGGSGGSSGVGSDIQMTQSPSSLSASVGDRVTITCKSSQSLLASGNQNNYLAWHQQKPGKAPKMLIIWASTRVSGVPSRFSGSGSGTDFTLTISSLQPEDFATYYCQQSYSAPLTFGQGTKVEIKR
As for B2, the “specificity to c-Met” value with c-Met was “exhibit specificity to c-Met”.
